Experimental data: patent US20060264369, “Aptamers to von Willebrand Factor and their use as thrombotic disease therapeutics” (published 2006)

Experiments:
[1] = biological target: T1, von Willebrand factor full length (Homo sapiens, UniProt P04275 SEQ:764-2813); experiment: filter; 25.6% bound at 100 nM vWF; settings: tags: Calbiochem 681300; label: 5'-32P
Description: (§1) For KD determination, chemically synthesized aptamers were purified using denaturing polyacrylamide gel electrophoresis, 5′end labeled with γ-³²P ATP and were tested for direct binding to full length human vWF (Calbiochem Cat.# 681300, La Jolla, Calif.). An 8 point protein titration was used in the dot blot binding assay (100 nM, 30 nM, 10 nM, 3 nM, 1 nM, 300 pM, 100 pM, 0 pM)) in 1× Dulbecco's PBS containing […] (final volume of 50 uL) for 30 minutes at room temperature. KD values were calculated by fitting the equation y=(max/(1+K/protein))+yint using KaleidaGraph (KaleidaGraph v. 3.51, Synergy Software).

[2] = biological target: T1, von Willebrand factor full length; experiment: filter; 48.3% bound at 100 nM vWF; settings: tags: Calbiochem 681300; label: 5'-32P
Description: as §1

[3] = biological target: T1, von Willebrand factor full length; experiment: filter; 46% bound at 100 nM vWF; settings: tags: Calbiochem 681300; label: 5'-32P
Description: as §1

[4] = biological target: T1, von Willebrand factor full length; experiment: filter; no binding; settings: tags: Calbiochem 681300; label: 5'-32P
[5] = biological target: T1, von Willebrand factor full length; experiment: filter; no binding; settings: tags: Calbiochem 681300; label: 5'-32P; remark: listed apart in the source
Description: as §1

[6] = biological target: T1, von Willebrand factor full length; experiment: filter; DPBS, 0.1 mg/mL BSA, RT; settings: tags: Calbiochem 681300; label: 5'-32P
Description: Minimers were tested for direct binding to full length human vWF (SEQ ID NO 7), and rabbit vWF A1 domain (SEQ ID NO 6) using a 9 point protein titration (100 nM, 30 nM, 10 nM, 3 nM, 1 nM, 300 pM, 100 pM, 30 pM, 0 pM) (see FIG. 6) in 1×Dulbecco's PBS containing 0.1 mg/mL BSA (final volume of 50 uL) for 30 minutes at room temperature and then applied to a nitrocellulose and nylon filter sandwich in a dot blot apparatus (Schleicher and Schuell, Keene, N.H.). KD values were calculated by fitting the equation y=(max/(1+K/protein))+yint using KaleidaGraph (KaleidaGraph v. 3.51, Synergy Software).

[7] = biological target: T1, von Willebrand factor full length; experiment: filter; 36% bound at 100 nM vWF; settings: tags: Calbiochem 681300; label: 5'-32P
Description: as §1

[8] = biological target: T1, von Willebrand factor full length; experiment: filter; 37% bound at 100 nM vWF; settings: tags: Calbiochem 681300; label: 5'-32P
Description: as §1

[9] = biological target: T1, von Willebrand factor full length; experiment: filter; 50% bound at 100 nM vWF; settings: tags: Calbiochem 681300; label: 5'-32P
Description: as §1

[10] = biological target: T1, von Willebrand factor full length; experiment: filter; 28% bound at 100 nM vWF; settings: tags: Calbiochem 681300; label: 5'-32P
Description: as §1

[11] = biological target: T1, von Willebrand factor full length; experiment: filter; 25% bound at 100 nM vWF; settings: tags: Calbiochem 681300; label: 5'-32P
Description: as §1

[12] = biological target: T1, von Willebrand factor full length; experiment: filter; only 6% bound at 100 nM vWF; settings: tags: Calbiochem 681300; label: 5'-32P
Description: as §1

[13] = biological target: T1, von Willebrand factor full length; experiment: filter; 56% bound at 100 nM vWF; settings: tags: Calbiochem 681300; label: 5'-32P
Description: as §1

[14] = biological target: T1, von Willebrand factor full length; experiment: filter; 18% bound at 100 nM vWF; settings: tags: Calbiochem 681300; label: 5'-32P
Description: as §1

[15] = biological target: T1, von Willebrand factor full length; experiment: filter; only 2% bound at 100 nM vWF; settings: tags: Calbiochem 681300; label: 5'-32P
Description: as §1

[16] = biological target: T1, von Willebrand factor full length; experiment: filter; 47% bound at 100 nM vWF; settings: tags: Calbiochem 681300; label: 5'-32P
Description: as §1

[17] = biological target: T1, von Willebrand factor full length; experiment: filter; 16% bound at 100 nM vWF; settings: tags: Calbiochem 681300; label: 5'-32P
Description: as §1

[18] = biological target: T1, von Willebrand factor full length; experiment: filter; 23% bound at 100 nM vWF; settings: tags: Calbiochem 681300; label: 5'-32P
Description: as §1

[19] = biological target: T1, von Willebrand factor full length; experiment: filter; 9% bound at 100 nM vWF; settings: tags: Calbiochem 681300; label: 5'-32P
Description: as §1

[20] = biological target: T1, von Willebrand factor full length; experiment: filter; 21% bound at 100 nM vWF; settings: tags: Calbiochem 681300; label: 5'-32P
Description: as §1

[21] = biological target: T1, von Willebrand factor full length; experiment: filter; 39% bound at 100 nM vWF; settings: tags: Calbiochem 681300; label: 5'-32P
Description: as §1

[22] = biological target: T1, von Willebrand factor full length; experiment: filter; 43% bound at 100 nM vWF; settings: tags: Calbiochem 681300; label: 5'-32P
Description: as §1

[23] = biological target: T1, von Willebrand factor full length; experiment: filter; 33% bound at 100 nM vWF; settings: tags: Calbiochem 681300; label: 5'-32P
Description: as §1

[24] = biological target: T1, von Willebrand factor full length; experiment: filter; 49% bound at 100 nM; settings: tags: Calbiochem 681300
Description: as §1

[25] = biological target: T1, von Willebrand factor full length; experiment: filter; 39% bound at 100 nM; settings: tags: Calbiochem 681300
Description: as §1

[26] = biological target: T1, von Willebrand factor full length; experiment: filter; 37% bound at 100 nM; settings: tags: Calbiochem 681300
Description: as §1

[27] = biological target: T1, von Willebrand factor full length; experiment: filter; 45% bound at 100 nM; settings: tags: Calbiochem 681300
Description: as §1

Binder: CGGCCGTGCGGTGCCUCCGUCACUUUGUGCAGUGCCG (mixed, 2'-OMe/deoxy composite, single PS, 3'-idT) [ARC1534]
- Kd [1]: 62.8 nM

Binder: CCGGCCGTGCGGTGCCUCCGUCACUUUGUGCAGUGCCGG (mixed, 2'-OMe/deoxy composite, single PS, 3'-idT) [ARC1535]
- Kd [2]: 27.1 nM

Binder: GGCGTGCAGTGCCTTCGGCCGTGCGGTGCCTCCGTCACGCC (ssDNA, single PS between G21 and T22, 3'-idT) [ARC1759]
- Kd [3]: 0.7 nM

Binder: ATGAGAGTGCTGGTGGATTGCTCAGGTCTGCTGGCTGCTTACTCTCAT (ssDNA) [ARC845]
- binding result [4]: no binding

Binder: GCGUGCAGUGCUUCGCCGTGCGGTGCCUCCGUCACGC (mixed, 2'-OMe/deoxy composite, 3'-idT) [ARC1348]
- binding result [5]: no binding

Binder: GGCGTGCAGTGCCTATTCTAGGCCGTGCGGTGCCTCCGTCACGCC (ssDNA, 3'-idT) [ARC1027]
- Kd [6]: 0.8 nM

Binder: GGCGTGCAGTGCCTTCGGCCGTGCGGTGCCTCCGTCACGCC (ssDNA) [ARC1115]
- Kd [7]: 2 nM

Binder: GGCGTGCAGTGCCTTCGGCCGTGCGGTGCCTCCGTCACGCC (ssDNA, 3'-idT) [ARC1172]
- Kd [8]: 2 nM

Binder: GGCGUGCAGTGCCTTCGGCCGTGCGGTGCCTCCGTCACGCC (ssDNA, 2'-OMe U5, 3'-idT) [ARC1198]
- Kd [9]: 0.9 nM

Binder: GGCGTGCAGTGCCTTCGGCCGTGCGGTGCCTCCGTCACGCC (ssDNA, 2'-OMe G6, 3'-idT) [ARC1199]
- Kd [10]: 19 nM

Binder: GGCGTGCAGTGCCTTCGGCCGTGCGGTGCCTCCGTCACGCC (ssDNA, 2'-OMe C7, 3'-idT) [ARC1200]
- Kd [11]: 5 nM

Binder: GGCGTGCAGTGCCTTCGGCCGTGCGGTGCCTCCGTCACGCC (ssDNA, 2'-OMe A8, 3'-idT) [ARC1201]
- Kd [12]: 0.9 nM

Binder: GGCGTGCAGTGCCTTCGGCCGTGCGGTGCCTCCGTCACGCC (ssDNA, 2'-OMe G9, 3'-idT) [ARC1202]
- Kd [13]: 0.4 nM

Binder: GGCGTGCAGTGCCTTCGGCCGTGCGGTGCCTCCGTCACGCC (ssDNA, 2'-OMe C24, 3'-idT) [ARC1217]
- Kd [14]: 14 nM

Binder: GGCGTGCAGTGCCTTCGGCCGTGCGGTGCCTCCGTCACGCC (ssDNA, 2'-OMe G25, 3'-idT) [ARC1218]
- Kd [15]: 32 nM

Binder: GGCGTGCAGTGCCTTCGGCCGTGCGGTGCCUCCGTCACGCC (ssDNA, 2'-OMe U31, 3'-idT) [ARC1224]
- Kd [16]: 0.5 nM

Binder: GGCGTGCAGTGCCTTCGGCCGTGCGGTGCCTCCGTCACGCC (ssDNA, 2'-OMe C32, 3'-idT) [ARC1225]
- Kd [17]: 11 nM

Binder: GGCGTGCAGTGCCTTCGGCCGTGCGGTGCCTCCGTCACGCC (ssDNA, 2'-OMe C33, 3'-idT) [ARC1226]
- Kd [11]: 12 nM

Binder: GGCGTGCAGTGCCTTCGGCCGTGCGGTGCCTCCGTCACGCC (mixed, 2'-OMe G1 G2 G4 G6 A37 G39, 3'-idT) [ARC1235]
- Kd [18]: 13 nM

Binder: GGCGUGCAGTGCCTTCGGCCGTGCGGTGCCTCCGTCACGCC (mixed, 2'-OMe at 1-6 and 36-41, 3'-idT) [ARC1237]
- Kd [19]: 41 nM

Binder: GGCGUGCAGTGCCTTCGGCCGTGCGGTGCCTCCGTCACGCC (mixed, 2'-OMe at 1-5 and 37-41, 3'-idT) [ARC1338]
- Kd [20]: 7.4 nM

Binder: GGCGTGCAGUGCCTTCGGCCGTGCGGTGCCTCCGUCACGCC (mixed, 2'-OMe at 9, 10, 21, 23, 34-36, 3'-idT) [ARC1339]
- Kd [21]: 2.4 nM

Binder: GGCGTGCAGTGCCTTCGGCCGTGCGGTGCCUCCGUCACGCC (mixed, 2'-OMe at 23, 28, 29, 31, 34-36, 3'-idT) [ARC1340]
- Kd [22]: 7.4 nM

Binder: GGCGUGCAGUGCCUUCGGCCGTGCGGTGCCUCCGUCACGCC (mixed, 2'-OMe/deoxy composite as printed in Table 22, 3'-idT) [ARC1342]
- Kd [23]: 15.6 nM

Binder: GGCGUGCAGUGCCUUCGGCCGTGCGGTGCCUCCGUCACGCC (mixed, 2'-OMe/deoxy composite with 4 PS as printed in Table 22, 3'-idT) [ARC1343]
- Kd [20]: 23.9 nM

Binder: GGCGTGCAGTGCCTTCGGCCGTGCGGTGCCTCCGTCACGCC (ssDNA, 2'-OMe at 17; 3'-idT) [ARC1210]
- Kd [24]: 2 nM

Binder: GGCGTGCAGTGCCTTCGGCCGTGCGGTGCCTCCGTCACGCC (ssDNA, 2'-OMe at 19; 3'-idT) [ARC1212]
- Kd [24]: 2 nM

Binder: GGCGTGCAGTGCCTTCGGCCGTGCGGTGCCTCCGTCACGCC (ssDNA, 2'-OMe at 21; 3'-idT) [ARC1214]
- Kd [25]: 3 nM

Binder: GGCGTGCAGTGCCTTCGGCCGTGCGGTGCCTCCGTCACGCC (ssDNA, 2'-OMe at 36; 3'-idT) [ARC1229]
- Kd [26]: 5 nM

Binder: GGCGTGCAGTGCCTTCGGCCGTGCGGTGCCTCCGTCACGCC (ssDNA, 2'-OMe at 40; 3'-idT) [ARC1233]
- Kd [25]: 2 nM

Binder: GGCGTGCAGTGCCTTCGGCCGTGCGGTGCCTCCGTCACGCC (ssDNA, 2'-OMe at 12,13,19; 3'-idT) [ARC1239]
- Kd [26]: 5 nM

Binder: GGCGTGCAGTGCCTTCGGCCGTGCGGTGCCTCCGTCACGCC (ssDNA, 2'-OMe at 11; 3'-idT) [ARC1204]
- Kd [27]: 2 nM

Binder: GGCGTGCAGTGCCTUCGGCCGTGCGGTGCCTCCGTCACGCC (ssDNA, 2'-OMe at 15 (mU); 3'-idT) [ARC1208]
- Kd [27]: 2 nM
